Assay results: patent US5663141A, “Hirudin/polyalkylene glycol conjugates and hirudin muteins” (BASF Aktiengesellschaft, priority 1989, dated 1997)

How the values were obtained:
thrombin [1] = target: thrombin (Homo sapiens, UniProt P00734); experiment: thrombin inhibition assay with the chromogenic substrate S 2238 (specific activity); format: biochemical
Excerpt: The specific activity of the PEG1 -hirudin conjugate purified from the coupling mixture was 8,000 U/mg of protein (determined by the thrombin inhibition assay with the chromogenic substrate S 2238 (Kabi), (FEBS-Lett. (1983), 164, 307), protein determined by BCA assay with serum albumin as standard (Pierce)), and the molecular weight of the conjugate was 15,000 Da (Superose®-12 chromatography, Pharmacia).

[2] = Pharmacokinetics of PEG2-hirudin conjugates in dogs (plasma anti-factor IIa activity); format: in vivo; conditions: beagle dogs, 4,000 U/kg intravenous or subcutaneous, compared with underivatized hirudin, FIGS. 3 and 4
Protocol: 2 groups of dogs (beagle dogs, 4 animals in each group) each received intravenous or subcutaneous administration of 4,000 U/kg PEG2 -hirudin (0.2 ml vol). 2 ml samples of blood in 0.1M Na citrate were taken 0.25, 0.5, 1, 2, 3, 4, 6, 8, 24, 32, 48, 56, 72 and 80 h after the injection. Subsequently platelet-poor plasma was prepared by centrifugation at 4,000 g for 10 minutes, and the plasma PEG-hirudin concentration was determined by the thrombin inhibition in the chromogenic substrate assay with S 2238 (Kabi). For comparison, the same dogs were treated in another experiment with hirudin. The time course of the plasma hirudin concentration was subsequently determined as described above.
FIGS. 3 and 4 depict the time course of the anti-factor IIa activities after intravenous and subcutaneous administration of PEG2 -hirudin and underivatized hirudin.

thrombin [3] = target: thrombin
[4] = in vivo; cited from earlier work
[5] = purified conjugate, protein determined by BCA assay with serum albumin as standard
[6] = underivatized protein used as starting material

For “PEG2-hirudin: desulfatohirudin carrying two methoxypolyethylene glycol (8,000 Da) residues, Example 10”, the specific activity (thrombin [1]; [5]) was 6,200 U/mg of protein, the bioavailability [2] was “better” and the “duration of the biological action (anti-factor IIa activity time course)” value [2] was “distinctly prolonged”.

In the case of “PEG1-hirudin: desulfatohirudin carrying one methoxy-polyethylene glycol(8000) residue, Example 9”, the specific activity (thrombin [1]; [5]) is reported as 8,000 U/mg of protein.

For “desulfatohirudin: hirudin prepared by genetic engineering, sulfate residue on Tyr 63 absent; sequences 1A + 2A + 3A [reference compound]”, the specific activity (thrombin [1]; [6]) was 8,000 ATU/mg.

Work on desulfatohirudin (from UniProt P01050) yielded a specific activity (thrombin [3]) of 8000 ATU/mg.

For “hirudin: naturally occurring anticoagulant protein of 65 amino acids from the leech Hirudo medicinalis, thrombin inhibitor”, the “half-life in the blood” value [4] is listed as “about 50 min”.

B1: HL 14B: hirudin mutein, Asp33→Lys33, Lys36→Arg36, Lys47→Arg47 (protein)
chain: VVYTDCTESGQNLCLCEGSNVCGQGNKCILGSKGERNQCVTGEGTPRPQSHNDGDFEEIPEEYLQ
In the case of B1, the specific activity (thrombin [1]; [6]) is reported as 8,900 ATU/mg.

B2: PEG2-HL 14B: hirudin mutein HL 14B carrying two methoxy-polyethylene glycol (8,000 Da) residues, Example 11 (conjugate)
chain: VVYTDCTESGQNLCLCEGSNVCGQGNKCILGSKGERNQCVTGEGTPRPQSHNDGDFEEIPEEYLQ
modifications: ends and bridges not checked; also: two methoxy-PEG (8,000 Da) on lysine side-chain amino groups, positions not given here
For B2, the specific activity (thrombin [1]; [5]) was 8,300 U/mg of protein.
